Assay results reported in patent US11471462B2, “Compositions and methods for detecting and treating diabetes” (THE BROAD INSTITUTE, INC., priority 2016, dated 2022).

B1: BRAT1 (protein)
chain: MDPECAQLLPALCAVLVDPRQPVADDTCLEKLLDWFKTVTEGESSVVLLQEHPCLVELLSHVLKVQDLSSGVLSFSLRLAGTFAAQENCFQYLQQGELLPGLFGEPGPLGRATWAVPTVRSGWIQGLRSLAQHPSALRFLADHGAVDTIFSLQGDSSLFVASAASQLLVHVLALSMRGGAEGQPCLPGGDWPACAQKIMDHVEESLCSAATPKVTQALNVLTTTFGRCQSPWTEALWVRLSPRVACLLERDPIPAAHSFVDLLLCVARSPVFSSSDGSLWETVARALSCLGPTHMGPLALGILKLEHCPQALRTQAFQVLLQPLACVLKATVQAPGPPGLLDGTADDATTVDTLLASKSSCAGLLCRTLAHLEELQPLPQRPSPWPQASLLGATVTVLRLCDGSAAPASSVGGHLCGTLAGCVRVQRAALDFLGTLSQGTGPQELVTQALAVLLECLESPGSSPTVLKKAFQATLRWLLSSPKTPGCSDLGPLIPQFLRELFPVLQKRLCHPCWEVRDSALEFLTQLSRHWGGQADFRCALLASEVPQLALQLLQDPESYVRASAVTAMGQLSSQGLHAPTSPEHAEARQSLFLELLHILSVDSEGFPRRAVMQVFTEWLRDGHADAAQDTEQFVATVLQAASRDLDWEVRAQGLELALVFLGQTLGPPRTHCPYAVALPEVAPAQPLTEALRALCHVGLFDFAFCALFDCDRPVAQKSCDLLLFLRDKIASYSSLREARGSPNTASAEATLPRWRAGEQAQPPGDQEPEAVLAMLRSLDLEGLRSTLAESSDHVEKSPQSLLQDMLATGGFLQGDEADCY
B2: TUBA1C (protein)
chain: MTAWFNGVEELGRDECFVCLELDPSNGSFLNAKLYISNWILIYFTRTLQLPAPFNTCTSSKSRGEPGCDSKRECISIHVGQAGVQIGNACWELYCLEHGIQPDGQMPSDKTIGGGDDSFNTFFSETGAGKHVPRAVFVDLEPTVIDEVRTGTYRQLFHPEQLITGKEDAANNYARGHYTIGKEIIDLVLDRIRKLADQCTGLQGFLVFHSFGGGTGSGFTSLLMERLSVDYGKKSKLEFSIYPAPQVSTAVVEPYNSILTTHTTLEHSDCAFMVDNEAIYDICRRNLDIERPTYTNLNRLISQIVSSITASLRFDGALNVDLTEFQTNLVPYPRIHFPLATYAPVISAEKAYHEQLTVAEITNACFEPANQMVKCDPRHGKYMACCLLYRGDVVPKDVNAAIATIKTKRTIQFVDWCPTGFKVGINYQPPTVVPGGDLAKVQRAVCMLSNTTAVAEAWARLDHKFDLMYAKRAFVHWYVGEGMEEGEFSEAREDMAALEKDYEEVGADSADGEDEGEEY
B3: PSMA3 (protein)
chain: SSIGTGYDLSASTFSPDGRVFQVEYAMKAVENSSTAIGIRCKDGVVFGVEKLVLSKLYEEGSNKRLFNVDRHVGMAVAGLLADARSLADIAREEASNFRSNFGYNIPLKHLADRVAMYVHAYTLYSAVRPFGCSFMLGSYSVNDGAQLYMIDPSGVSYGYWGCAIGKARQAAKTEIEKLQMKEMTCRDIVKEVAKIIYIVHDEVKDKAFELELSWVGELTNGRHEIVPKDIREEAEKYAKESLKEEDESDDDNM
B4: QIL1 (protein)
chain: MVARVWSLMRFLIKGSVAGGAVYLVYDQELLGPSDKSQAALQKAGEVVPPAMYQFSQYVCQQTGLQIPQLPAPPKIYFPIRDSWNAGIMTVMSALSVAPSKAREYSKEGWEYVKARTK
B5: DNAJC7 (protein)
chain: AAAAECDVVMAATEPELLDDQEAKREAETFKEQGNAYYAKKDYNEAYNYYTKAIDMCPKNASYYGNRAATLMMLGRFREALGDAQQSVRLDDSFVRGHLREGKCHLSLGNAMAACRSFQRALELDHKNAQAQQEFKNANAVMEYEKIAETDFEKRDFRKVVFCMDRALEFAPACHRFKILKAECLAMLGRYPEAQSVASDILRMDSTNADALYVRGLCLYYEDCIEKAVQFFVQALRMAPDHEKACIACRNAKALKAKKEDGNKAFKEGNYKLAYELYTEALGIDPNNIKTNAKLYCNRGTVNSKLRKLDDAIEDCTNAVKLDDTYIKAYLRRAQCYMDTEQYEEAVRDYEKVYQTEKTKEHKQLLKNAQLELKKSKRKDYYKILGVDKNASEDEIKKAYRKRALMHHPDRHSGASAEVQKEEEKKFKEVGEAFTILSDPKKKTRYDSGQDLDEEGMNMGDFDPNNIFKAFFGGPGGFSFEASGPGNFFFQFG

These molecules were tested on SLC16A11 (assay: SLC16A11 protein-protein interaction study (immunoprecipitation, quantitative mass spectrometry)). Conditions: putative SLC16A11^REF interaction partners; immunoprecipitation from HEK293T cells vs empty vector control; Blandt-Altman.
Parameters: species or system human

B1 and B2 are the same in “BA log fold change” value: 1.04 for the first, 1.04 for the second.

B3 and B4 are within 0.2 log units of each other in “BA log fold change” value: 1.09 for the first, 1.08 for the second.

B5 was tested, and the “BA log fold change” value was 1.05.
